Experimental data as given in patent publication US20240117030A1 (Pfizer, published 2024).

Legend:
human IL-4 [1] = target: T1, human IL-4 (human, UniProt P05112 25-153); test: cell-based or functional assay
T1 sequence (looked up): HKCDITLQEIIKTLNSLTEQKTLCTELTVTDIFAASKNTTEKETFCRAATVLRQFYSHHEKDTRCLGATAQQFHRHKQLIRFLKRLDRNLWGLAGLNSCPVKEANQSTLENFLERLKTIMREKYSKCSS

human IL-13 [2] = target: human IL-13 (human, UniProt P35225 35-146); test: cell-based or functional assay
human IL-12 = target: T2, human IL-12 (human, UniProt P29459 23-219; P29460 23-328); test: cell-based or functional assay
T2 sequence (looked up) 1: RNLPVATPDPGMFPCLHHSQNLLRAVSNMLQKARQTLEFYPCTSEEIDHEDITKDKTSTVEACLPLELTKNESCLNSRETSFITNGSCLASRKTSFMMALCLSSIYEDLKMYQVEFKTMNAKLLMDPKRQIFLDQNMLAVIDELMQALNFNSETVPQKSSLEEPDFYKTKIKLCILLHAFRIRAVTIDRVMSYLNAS
T2 sequence (looked up) 2: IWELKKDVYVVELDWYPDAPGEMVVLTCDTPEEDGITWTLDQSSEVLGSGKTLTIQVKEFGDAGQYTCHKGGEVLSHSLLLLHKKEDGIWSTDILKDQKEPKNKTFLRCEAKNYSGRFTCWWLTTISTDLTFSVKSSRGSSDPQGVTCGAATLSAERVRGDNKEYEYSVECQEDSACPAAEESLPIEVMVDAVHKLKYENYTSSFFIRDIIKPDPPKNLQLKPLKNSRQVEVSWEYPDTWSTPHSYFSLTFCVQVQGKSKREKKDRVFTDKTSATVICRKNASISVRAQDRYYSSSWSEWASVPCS

cynomolgus monkey IL-23 = cynomolgus monkey IL-23 (cynomolgus monkey, UniProt H6WS56 20-189); test: cell-based or functional assay
cynomolgus monkey IL-13 = cynomolgus monkey IL-13 (cynomolgus monkey, UniProt Q0PW92 19-132); test: cell-based or functional assay
human IL-23 = target: T3, human IL-23 (human, UniProt Q9NPF7 20-189; P29460 23-328); test: cell-based or functional assay
T3 sequence (looked up) 1: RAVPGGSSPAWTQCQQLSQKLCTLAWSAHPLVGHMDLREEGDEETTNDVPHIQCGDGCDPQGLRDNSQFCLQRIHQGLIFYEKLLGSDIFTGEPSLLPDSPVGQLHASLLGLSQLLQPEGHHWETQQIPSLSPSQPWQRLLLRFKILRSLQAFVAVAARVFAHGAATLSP
T3 sequence (looked up) 2: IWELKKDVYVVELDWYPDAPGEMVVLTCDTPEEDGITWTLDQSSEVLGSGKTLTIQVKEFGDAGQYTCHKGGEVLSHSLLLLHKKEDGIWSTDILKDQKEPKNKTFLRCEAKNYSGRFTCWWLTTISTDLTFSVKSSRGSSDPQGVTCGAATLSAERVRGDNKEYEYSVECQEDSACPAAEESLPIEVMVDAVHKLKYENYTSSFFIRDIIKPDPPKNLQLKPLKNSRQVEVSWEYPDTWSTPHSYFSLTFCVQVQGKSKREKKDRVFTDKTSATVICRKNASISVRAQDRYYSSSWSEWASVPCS

cynomolgus monkey IL-12 = target: T4, cynomolgus monkey IL-12 (cynomolgus monkey, UniProt A0A2K5V4L8 57-253; G7P6S2 23-328); test: cell-based or functional assay
T4 sequence (p35): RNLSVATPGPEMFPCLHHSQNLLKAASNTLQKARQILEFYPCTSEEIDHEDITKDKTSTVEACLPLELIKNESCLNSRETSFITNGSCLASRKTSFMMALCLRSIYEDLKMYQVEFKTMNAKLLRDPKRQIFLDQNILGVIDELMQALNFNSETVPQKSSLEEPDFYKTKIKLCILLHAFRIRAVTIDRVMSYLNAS
T4 sequence (p40): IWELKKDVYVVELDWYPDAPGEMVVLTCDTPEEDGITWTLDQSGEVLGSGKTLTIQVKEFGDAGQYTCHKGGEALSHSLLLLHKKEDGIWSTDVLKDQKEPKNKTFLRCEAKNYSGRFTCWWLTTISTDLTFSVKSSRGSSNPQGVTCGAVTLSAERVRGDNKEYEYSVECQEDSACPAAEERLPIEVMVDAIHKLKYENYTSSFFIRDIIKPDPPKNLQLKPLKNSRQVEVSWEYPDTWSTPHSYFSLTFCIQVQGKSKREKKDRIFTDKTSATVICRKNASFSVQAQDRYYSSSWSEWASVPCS

cynomolgus monkey IL-4 = target: T5, cynomolgus monkey IL-4 (cynomolgus monkey, UniProt P79339 25-153); test: KinExA, fixed antigen
T5 construct: mature; also called cy IL-4; cyno IL-4
T5 sequence (looked up): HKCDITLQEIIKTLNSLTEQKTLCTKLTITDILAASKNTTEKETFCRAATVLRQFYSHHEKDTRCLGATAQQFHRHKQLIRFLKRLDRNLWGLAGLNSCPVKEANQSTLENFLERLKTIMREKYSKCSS

[3] = target: T6, recombinant human IL-33 (wild type, Ser112-Thr270) (human, UniProt O95760 112-270); test: cell-based or functional assay
T6 sequence (looked up): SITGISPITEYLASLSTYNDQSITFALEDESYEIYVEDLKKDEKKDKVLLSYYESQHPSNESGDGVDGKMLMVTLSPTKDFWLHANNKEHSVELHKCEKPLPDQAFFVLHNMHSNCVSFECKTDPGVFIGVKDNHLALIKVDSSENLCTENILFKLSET

human IL-4 [4] = target: T7, human IL-4 (human, UniProt P05112 25-153); test: cell-based or functional assay; remark: listed apart in the source
T7 sequence (looked up): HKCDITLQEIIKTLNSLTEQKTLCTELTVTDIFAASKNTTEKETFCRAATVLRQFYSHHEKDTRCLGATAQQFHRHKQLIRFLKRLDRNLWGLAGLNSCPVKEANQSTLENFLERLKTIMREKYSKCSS

human IL-13 [5] = target: human IL-13 (human, UniProt P35225 35-146); test: cell-based or functional assay; remark: listed apart in the source

cynomolgus monkey IL-13, sequence (Q0PW92 entry or part of it limits assumed): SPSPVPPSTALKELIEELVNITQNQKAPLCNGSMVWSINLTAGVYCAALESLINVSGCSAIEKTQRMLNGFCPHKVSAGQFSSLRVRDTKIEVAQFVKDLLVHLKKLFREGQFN

B1: IL413P40-0705 (trispecific antibody)
heavy: EVQLVQSGAEVKKPGESLKISCKGSGYSFTTYWLGWVRQMPGKGLDWIGIMSPVDSDIRYSPSFQGQVTMSVDKSITTAYLQWNSLKASDTAMYYCARRRPGQGYFDFWGQGTLVTVSSASTKGPSVFPLAPSSKSTSGGTAALGCLVKDYFPEPVTVSWNSGALTSGVHTFPAVLQSSGLYSLSSVVTVPSSSLGTQTYICNVNHKPSNTKVDKKVEPKSCRKTHTCPPCPAPEAAGAPSVFLFPPKPKDTLMISRTPEVTCVVVDVSHEDPEVKFNWYVDGVEVHNAKTKPREEQYNSTYRVVSVLTVLHQDWLNGKEYKCKVSNKALPAPIEKTISKAKGQPREPQVYTLPPSREEMTKNQVSLTCLVKGFYPSDIAVEWESNGQPENNYKTTPPVLDSDGSFFLYSRLTVDKSRWQQGNVFSCSVLHEALHSHYTQKSLSLSPGK
chain 1: DIQMTQSPSSLSASVGDRVTITCKASESVDHFGWSLVHWYQQKPGKAPKLLIYRASNLESGVPSRFSGSGSGTDFTLTISSLQPEDFATYYCQQSNEDPWTFGGGTKVEIKRTVAAPSVFIFPPSDEQLKSGTASVVCLLNNFYPREAKVQWKVDNALQSGNSQESVTEQDSKDSTYSLSSTLTLSKADYEKHKVYACEVTHQGLSSPVTKSFNRGECGGGGSEVTLRESGPALVKPTQTLTLTCTFSGFSLSNFGEGLSWIRQPPGKGLEWLAHIYWDDDKRYNPSLKSRLTISKDTSRNQVVLTMTNMDPVDTATYYCARRETVFYWYFDVWGQGTTVTVSSASTKGPSVFPLAPSSKSTSGGTAALGCLVKDYFPEPVTVSWNSGALTSGVHTFPAVLQSSGLYSLSSVVTVPSSSLGTQTYICNVNHKPSNTKVDKKVEPKSCEKTHTCPPCPAPEAAGAPSVFLFPPKPKDTLMISRTPEVTCVVVDVSHEDPEVKFNWYVDGVEVHNAKTKPREEQYNSTYRVVSVLTVLHQDWLNGKEYKCKVSNKALPAPIEKTISKAKGQPREPQVYTLPPSREEMTKNQVSLTCEVKGFYPSDIAVEWESNGQPENNYKTTPPVLDSDGSFFLYSKLTVDKSRWQQGNVFSCSVLHEALHSHYTQKSLSLSPGK
light 1: not shown
light 2: DIQMTQSPSSLSASVGDRVTITCRASQSVDEEGDSYMNWYQQKPGKAPKLLIYAASNLESGVPSRFSGSGSGTDFTLTISSLQPEDFATYYCQQSNKDPPTFGGGTKVEIKRTVAAPSVFIFPPSDEQLKSGTASVVCLLNNFYPREAKVQWKVDNALQSGNSQESVTEQDSKDSTYSLSSTLTLSKADYEKHKVYACEVTHQGLSSPVTKSFNRGEC
chain 2: EVQLVESGGGLVQPGGSLRLSCAASGFTFSSYAMSWVRQAPGKGLEWVASISSGDTTYYPDSVKGRFTISRDNAKNSLYLQMNSLRAEDTAVYYCARNEGYYFGLTLWGQGTLVTVSSASTKGPSVFPLAPSSKSTSGGTAALGCLVKDYFPEPVTVSWNSGALTSGVHTFPAVLQSSGLYSLSSVVTVPSSSLGTQTYICNVNHKPSNTKVDKKVEPKSC
notes: EE/RR, LS; also called IL134P40-0705; Tri-Fab-Fc IL413p40-0705
fold IL-4 neutralization activity over dupilumab (monocyte CD23 bioassay) (human IL-4 [1]): ~10 fold | fold lower potency than mAb IL4-1040 (monocyte CD23 bioassay) (human IL-4 [1]): ~3.2 fold | fold IL-13 neutralization activity over dupilumab (monocyte CD23 bioassay) (human IL-13 [2]): 8.9 fold | fold lower potency than IL13-0001 (monocyte CD23 bioassay) (human IL-13 [2]): ~2.4 fold | fold less potent than p40-0003, Kit-225 pSTAT4 assay (human IL-12): 2.9 fold | fold less potent than p40-0003, whole blood pSTAT4 assay (human IL-12): 1.5 fold | fold difference in potency between human and cynomolgus monkey IL-23, Kit-225 assay (cynomolgus monkey IL-23): < 2 fold | fold reduced neutralization compared to the human cytokine (monocyte CD23 bioassay) (cynomolgus monkey IL-13): ~4 fold | fold less potent than p40-0003, Kit-225 pSTAT3 assay (human IL-23): 2.6 fold | fold less potent than p40-0003, whole blood pSTAT3 assay (human IL-23): 2.4 fold | fold difference in potency between human and cynomolgus monkey IL-12, Kit-225 assay (cynomolgus monkey IL-12): < 2 fold | fold of the human IL-4 affinity value (cynomolgus monkey IL-4): ≤ 1.2 fold

B2: IL13433-1042 (other)
heavy: EVQLVESGGGLVQPGGSLRLSCAASGFTFSSYWMYWVRQAPGKGLEWVAAITPNAGEDYYPESVKGRFTISRDNAKNSLYLQMNSLRAEDTAVYYCARGQYYYTKYSLGYWGQGTLVTVSSASTKGPSVFPLAPSSKSTSGGTAALGCLVKDYFPEPVTVSWNSGALTSGVHTFPAVLQSSGLYSLSSVVTVPSSSLGTQTYICNVNHKPSNTKVDKKVEPKSCRKTHTCPRCPAPEAAGAPSVFLFPPKPKDTLMISRTPEVTCVVVDVSHEDPEVKFNWYVDGVEVHNAKTKPREEQYNSTYRVVSVLTVLHQDWLNGKEYKCKVSNKALPAPIEKTISKAKGQPREPQVYTLPPSREEMTKNQVSLTCLVKGFYPSDIAVEWESNGQPENNYKTTPPVLDSDGSFFLYSRLTVDKSRWQQGNVFSCSVLHEALHSHYTQKSLSLSPGK
chain 1: DIQMTQSPSSLSASVGDRVTITCKASESVDHFGWSLVHWYQQKPGKAPKLLIYRASNLESGVPSRFSGSGSGTDFTLTISSLQPEDFATYYCQQSNEDPWTFGGGTKVEIKRTVAAPSVFIFPPSDEQLKSGTASVVCLLNNFYPREAKVQWKVDNALQSGNSQESVTEQDSKDSTYSLSSTLTLSKADYEKHKVYACEVTHQGLSSPVTKSFNRGECGGGGSEVTLRESGPALVKPTQTLTLTCTFSGFSLSNFGEGLSWIRQPPGKGLEWLAHIYWDDDKRYNPSLKSRLTISKDTSRNQVVLTMTNMDPVDTATYYCARRETVFYWYFDVWGQGTTVTVSSASTKGPSVFPLAPSSKSTSGGTAALGCLVKDYFPEPVTVSWNSGALTSGVHTFPAVLQSSGLYSLSSVVTVPSSSLGTQTYICNVNHKPSNTKVDKKVEPKSCEKTHTCPECPAPEAAGAPSVFLFPPKPKDTLMISRTPEVTCVVVDVSHEDPEVKFNWYVDGVEVHNAKTKPREEQYNSTYRVVSVLTVLHQDWLNGKEYKCKVSNKALPAPIEKTISKAKGQPREPQVYTLPPSREEMTKNQVSLTCEVKGFYPSDIAVEWESNGQPENNYKTTPPVLDSDGSFFLYSKLTVDKSRWQQGNVFSCSVLHEALHSHYTQKSLSLSPGK
light 1: DIQMTQSPSSLSASVGDRVTITCRASQPIHNHLDWYQQKPGKAPKLLIYFGKNLQEGVPSRFSGSGSGTDFTLTISSLQPEDFATYYCFQYKKGWSFGGGTKVEIKRTVAAPSVFIFPPSDEQLKSGTASVVCLLNNFYPREAKVQWKVDNALQSGNSQESVTEQDSKDSTYSLSSTLTLSKADYEKHKVYACEVTHQGLSSPVTKSFNRGEC
light 2: DIQMTQSPSSLSASVGDRVTITCRASQSVDEEGDSYMNWYQQKPGKAPKLLIYAASNLESGVPSRFSGSGSGTDFTLTISSLQPEDFATYYCQQSNEDPPTFGGGTKVEIKRTVAAPSVFIFPPSDEQLKSGTASVVCLLNNFYPREAKVQWKVDNALQSGNSQESVTEQDSKDSTYSLSSTLTLSKADYEKHKVYACEVTHQGLSSPVTKSFNRGEC
chain 2: EVQLVESGGGLVQPGGSLRLSCAASGFTFSSYAMSWVRQAPGKGLEWVASISSGDTTYYPDSVKGRFTISRDNAKNSLYLQMNSLRAEDTAVYYCARNEGYYFGLTLWGQGTLVTVSSASTKGPSVFPLAPSSKSTSGGTAALGCLVKDYFPEPVTVSWNSGALTSGVHTFPAVLQSSGLYSLSSVVTVPSSSLGTQTYICNVNHKPSNTKVDKKVEPKSC
a-IL-33 bioassay (WT) IC50 [pM] [3]: 28 pM | a-hIL-4 IC50 [pM] (human IL-4 [4]): 7.1 pM | a-hIL-13 IC50 [pM] (human IL-13 [5]): 12.4 pM
